The test system of the data set is Saccharomyces cerevisiae. Put plainly: protein stability index of tFT-peptide fusion (C-terminal peptide) (PSI (0-1 scale)); higher = more stable (slower turnover). Conditions: temperature: 30 C. As to the method: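 MPS profiling in S. cerevisiae of the yeast C-terminome library: the last 12 aa of each annotated ORF are fused to the C-terminus of a sfGFP-mCherry timer, after a GGGS linker. Cells are FACS-sorted into 8 mCherry/sfGFP bins and deep-sequenced. PSI runs from 0 (unstable) to 1 (stable); wild type and das1Δ backgrounds, two technical replicates each.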

Where [1] appears, read: genetic background: das1 deletion.

The text below walks through data of the supplement of paper PMC10724198.

± gives the standard deviation of the averaged measurements.

In turn, DSVEMKFDKLNI [RBS1 C-terminal 12 aa] displayed a protein stability index under setting [1] of 0.6821 ± 0.0029 and a protein stability index (genetic background: wild type) of 0.748 ± 0.085.

On to DTDGAKISIINN [FKH2 C-terminal 12 aa], for which the protein stability index stood at 0.7019 ± 0.0064 under setting [1] and 0.7033 ± 0.002 (genetic background: wild type).

On to DVEDVLIDTLCN [PEX22 C-terminal 12 aa], for which the protein stability index reads like this: under setting [1], 0.723 ± 0.019; (genetic background: wild type) 0.678 ± 0.03.

With DVEIDEDEEYFY [SPO12 C-terminal 12 aa], the protein stability index is, setting by setting: under setting [1], 0.707 ± 0.0084; (genetic background: wild type) 0.71 ± 0.01.

DVYVLFYERVYD [UBP7 C-terminal 12 aa] yielded a protein stability index under setting [1] of 0.682 ± 0.036 and a protein stability index (genetic background: wild type) of 0.682 ± 0.03.

As to DWLIDVIKEEQL [ARL1 C-terminal 12 aa], the protein stability index was found to be 0.728 ± 0.051 under setting [1] and 0.695 ± 0.028 (genetic background: wild type).

EADFRKRFPSKV [PRK1 C-terminal 12 aa] registered a protein stability index under setting [1] of 0.694 ± 0.0081 and a protein stability index (genetic background: wild type) of 0.669 ± 0.021.

As for EAGDSDILTTLA [RPL30 C-terminal 12 aa], the protein stability index reads like this: under setting [1], 0.706 ± 0.024; (genetic background: wild type) 0.687 ± 0.0078.

Turning to “EAQLSSNDEPLP [YCR102W-A C-terminal 12 aa]”, the protein stability index is 0.6904 ± 0.004 under setting [1] and 0.721 ± 0.089 (genetic background: wild type).

On to ECPSVPPTVRAY [SDH1 C-terminal 12 aa], for which the protein stability index reads like this: under setting [1], 0.528 ± 0.011; (genetic background: wild type) 0.55 ± 0.0063.

As to EDGDNWEVVGKK [TIF3 C-terminal 12 aa], the protein stability index by setting is: under setting [1], 0.7056 ± 0.0056; (genetic background: wild type) 0.727 ± 0.012.

Turning to EDHKVDGNKKED [VMA21 C-terminal 12 aa], the protein stability index is 0.68 ± 0.017 under setting [1] and 0.707 ± 0.011 (genetic background: wild type).

Turning to EDIKQALKQATN [CYS3 C-terminal 12 aa], the protein stability index is 0.6902 ± 0.0052 under setting [1] and 0.654 ± 0.023 (genetic background: wild type).

For EEAREEFENIAL [SMI1 C-terminal 12 aa], the protein stability index was determined as 0.679 ± 0.0096 under setting [1] and 0.645 ± 0.017 (genetic background: wild type).

Sequence EEARQEKSGQES [CRZ1 C-terminal 12 aa] had a protein stability index under setting [1] of 0.678 ± 0.048 and a protein stability index (genetic background: wild type) of 0.659 ± 0.011.

Consider EECVKVQWESRT [TSR4 C-terminal 12 aa], for which the protein stability index stood at 0.681 ± 0.051 under setting [1] and 0.69407 ± 0.00052 (genetic background: wild type).

As for EEIRRENFRVIE [KTR7 C-terminal 12 aa], the protein stability index reads like this: under setting [1], 0.713 ± 0.012; (genetic background: wild type) 0.677 ± 0.029.

As to EELQGNARALNN [SNN1 C-terminal 12 aa], the protein stability index under setting [1] was 0.6962 ± 0.0046 and the protein stability index (genetic background: wild type) was 0.69 ± 0.019.

With EGEYADNVEPLA [PRY1 C-terminal 12 aa], the protein stability index is, setting by setting: under setting [1], 0.7124 ± 0.0048; (genetic background: wild type) 0.685 ± 0.02.

With EHIGAQNTGDGR [YER187W C-terminal 12 aa], the protein stability index by setting is: under setting [1], 0.6894 ± 0.0014; (genetic background: wild type) 0.679 ± 0.033.

Regarding EHTILSDSDETH [RIM15 C-terminal 12 aa], the protein stability index reads like this: under setting [1], 0.71 ± 0.012; (genetic background: wild type) 0.717 ± 0.022.

Turning to EIAADDTKKQEK [SOK2 C-terminal 12 aa], the protein stability index by setting is: under setting [1], 0.672 ± 0.027; (genetic background: wild type) 0.684 ± 0.074.

Turning to EIIDNWEKYEQS [FAS1 C-terminal 12 aa], the protein stability index stood at 0.706 ± 0.011 under setting [1] and 0.7 ± 0.04 (genetic background: wild type).

For the sequence EIKHVFTGVYGG [ASP1 C-terminal 12 aa], the protein stability index was found to be 0.68 ± 0.006 under setting [1] and 0.686 ± 0.0042 (genetic background: wild type).

EKHSFSTTQQVV [NRT1 C-terminal 12 aa]: the protein stability index under setting [1] was determined as 0.666 ± 0.019 and the protein stability index (genetic background: wild type) was found to be 0.664 ± 0.028.

EKKKIFKGNKTD [YLR030W C-terminal 12 aa]: the protein stability index came to 0.696 ± 0.036 under setting [1] and 0.669 ± 0.012 (genetic background: wild type).

As for EKMKKNQSIGWF [MRPL25 C-terminal 12 aa], the protein stability index by setting is: under setting [1], 0.756 ± 0.02; (genetic background: wild type) 0.73159 ± 0.00064.

As for EKSSVKRPCVKK [RKM4 C-terminal 12 aa], the protein stability index by setting is: under setting [1], 0.674 ± 0.02; (genetic background: wild type) 0.701 ± 0.0034.

Consider EKTVNFIKTFGV [GUT2 C-terminal 12 aa], for which the protein stability index is, setting by setting: under setting [1], 0.6956 ± 0.0026; (genetic background: wild type) 0.71 ± 0.035.

In the case of ELKEGRTFLGRS [APQ13 C-terminal 12 aa], the protein stability index runs as follows: under setting [1], 0.703 ± 0.014; (genetic background: wild type) 0.695 ± 0.028.

As for ELSDLENKLGKK [RCF1 C-terminal 12 aa], the protein stability index under setting [1] came out at 0.6843 ± 0.0062 and the protein stability index (genetic background: wild type) turned out to be 0.6991 ± 0.0033.

For the sequence ELSNNLNVDEFV [LRS4 C-terminal 12 aa], the protein stability index by setting is: under setting [1], 0.692 ± 0.0034; (genetic background: wild type) 0.687 ± 0.034.

As to ELTDFKYPSNYE [PUT2 C-terminal 12 aa], the protein stability index runs as follows: under setting [1], 0.6787 ± 0.0024; (genetic background: wild type) 0.711 ± 0.066.

EMRKRFFEKDLL [RAP1 C-terminal 12 aa]: the protein stability index was determined as 0.696 ± 0.022 under setting [1] and 0.723 ± 0.059 (genetic background: wild type).

Consider ENIEVILSNGRM [SNF12 C-terminal 12 aa], for which the protein stability index was found to be 0.676 ± 0.03 under setting [1] and 0.689 ± 0.037 (genetic background: wild type).

Take ENKLWNTEYFFC [ECM34 C-terminal 12 aa]: the protein stability index stood at 0.738 ± 0.018 under setting [1] and 0.6655 ± 0.0018 (genetic background: wild type).

Regarding ENLENKINNLSK [STF1 C-terminal 12 aa], the protein stability index turned out to be 0.709 ± 0.025 under setting [1] and 0.698 ± 0.034 (genetic background: wild type).

Regarding ENNDNDDNDGLF [CTR9 C-terminal 12 aa], the protein stability index under setting [1] was 0.707 ± 0.037 and the protein stability index (genetic background: wild type) came to 0.701 ± 0.048.

As to ENNEKFLNIRLY [CDC24 C-terminal 12 aa], the protein stability index reads like this: under setting [1], 0.71 ± 0.026; (genetic background: wild type) 0.668 ± 0.013.

For the sequence ENVLNKEGVLQK [GIN4 C-terminal 12 aa], the protein stability index reads like this: under setting [1], 0.682 ± 0.012; (genetic background: wild type) 0.734 ± 0.047.

As for EPAYDGASVEQQ [THR1 C-terminal 12 aa], the protein stability index was determined as 0.688 ± 0.0074 under setting [1] and 0.6724 ± 0.0055 (genetic background: wild type).

As to EPEAEQAVEDTA [HSP30 C-terminal 12 aa], the protein stability index came out at 0.685 ± 0.018 under setting [1] and 0.6594 ± 0.0041 (genetic background: wild type).

For EPRYNDDAQVSD [KCS1 C-terminal 12 aa], the protein stability index runs as follows: under setting [1], 0.684 ± 0.018; (genetic background: wild type) 0.663 ± 0.064.

With EREGGDEHDDMA [PWP1 C-terminal 12 aa], the protein stability index under setting [1] was determined as 0.684 ± 0.015 and the protein stability index (genetic background: wild type) came out at 0.708 ± 0.035.

In turn, ERRLNAIINGEV [YTH1 C-terminal 12 aa] displayed a protein stability index under setting [1] of 0.689 ± 0.024 and a protein stability index (genetic background: wild type) of 0.685 ± 0.034.

For the sequence ESDHPTLADNSV [MRL1 C-terminal 12 aa], the protein stability index reads like this: under setting [1], 0.6955 ± 0.0041; (genetic background: wild type) 0.6912 ± 0.00095.

Take ESEKELYNATLA [NHP6A C-terminal 12 aa]: the protein stability index reads like this: under setting [1], 0.697 ± 0.011; (genetic background: wild type) 0.718 ± 0.0079.

Turning to ESGLQSINESTL [ALY2 C-terminal 12 aa], the protein stability index under setting [1] was 0.7074 ± 0.0047 and the protein stability index (genetic background: wild type) was 0.706 ± 0.05.

With ESSAFEYPGGRL [BOI1 C-terminal 12 aa], the protein stability index is, setting by setting: under setting [1], 0.7086 ± 0.0049; (genetic background: wild type) 0.69 ± 0.0096.

ESTPKDAARSTN [ASF1 C-terminal 12 aa]: the protein stability index runs as follows: under setting [1], 0.69 ± 0.025; (genetic background: wild type) 0.705 ± 0.028.

Consider ETNNVFQDAILR [DOC1 C-terminal 12 aa], for which the protein stability index is, setting by setting: under setting [1], 0.698 ± 0.013; (genetic background: wild type) 0.683 ± 0.017.

As to ETPLLYNDTHTP [IES5 C-terminal 12 aa], the protein stability index runs as follows: under setting [1], 0.696 ± 0.042; (genetic background: wild type) 0.695 ± 0.009.

For ETYGSKIVYRFS [GAL10 C-terminal 12 aa], the protein stability index amounted to 0.692 ± 0.031 under setting [1] and 0.7035 ± 0.0018 (genetic background: wild type).

EVAKSLTLQYDV [CNB1 C-terminal 12 aa]: the protein stability index under setting [1] was 0.699 ± 0.0073 and the protein stability index (genetic background: wild type) worked out at 0.68 ± 0.015.

For EVENDRQIHRML [IDI1 C-terminal 12 aa], the protein stability index reads like this: under setting [1], 0.6924 ± 0.0013; (genetic background: wild type) 0.682 ± 0.01.

In the case of EWSFASSGYKDD [PPN1 C-terminal 12 aa], the protein stability index runs as follows: under setting [1], 0.7115 ± 0.0032; (genetic background: wild type) 0.794 ± 0.041.

Consider FADKIKPTKVAE [MCK1 C-terminal 12 aa], for which the protein stability index runs as follows: under setting [1], 0.693 ± 0.015; (genetic background: wild type) 0.691 ± 0.023.

In the case of FCAAYQGKKNNK [SLN1 C-terminal 12 aa], the protein stability index is, setting by setting: under setting [1], 0.696 ± 0.022; (genetic background: wild type) 0.659 ± 0.039.

FDIKKANSATLA [TMA46 C-terminal 12 aa] had a protein stability index under setting [1] of 0.6584 ± 0.0037 and a protein stability index (genetic background: wild type) of 0.634 ± 0.019.

On to FELVQPKGRRKH [TSR2 C-terminal 12 aa], for which the protein stability index was found to be 0.711 ± 0.016 under setting [1] and 0.686 ± 0.058 (genetic background: wild type).

For the sequence FFLRSAAVYQPF [YPR197C C-terminal 12 aa], the protein stability index is 0.6949 ± 0.003 under setting [1] and 0.6815 ± 0.0047 (genetic background: wild type).

With “FFNISVSTKISF [YER175W-A C-terminal 12 aa]”, the protein stability index runs as follows: under setting [1], 0.6797 ± 0.00033; (genetic background: wild type) 0.659 ± 0.04.

For FFSRVKSFKDPG [HRT3 C-terminal 12 aa], the protein stability index came to 0.7153 ± 0.0048 under setting [1] and 0.688 ± 0.022 (genetic background: wild type).

With “FHPLFYCSALVF [YIL142C-A C-terminal 12 aa]”, the protein stability index is 0.256 ± 0.016 under setting [1] and 0.277 ± 0.015 (genetic background: wild type).

FIEMSLASSFAG [MBR1 C-terminal 12 aa]: the protein stability index is, setting by setting: under setting [1], 0.713 ± 0.009; (genetic background: wild type) 0.704 ± 0.028.

Turning to FILELKNICKCT [MOH1 C-terminal 12 aa], the protein stability index came to 0.703 ± 0.026 under setting [1] and 0.525 ± 0.046 (genetic background: wild type).

For the sequence FINCSSKYNGLQ [YBR224W C-terminal 12 aa], the protein stability index is 0.687 ± 0.0088 under setting [1] and 0.703 ± 0.019 (genetic background: wild type).

With FKMCPFFISWFL [YBL073W C-terminal 12 aa], the protein stability index is, setting by setting: under setting [1], 0.6013 ± 0.0016; (genetic background: wild type) 0.563 ± 0.032.
